Values belong to the binder of their own block, whether it stands above or below them.
How the values were obtained:
[1] = target: T1, human folate receptor 1 (FOLR1) on cells (human, UniProt P15328 25-234); assay: flow cytometry on T47D cells and ELISA (binding affinity 'by both methods')
T1 construct: On the cell surface: 300-19 cells transfected with human FOLR1 (NCBI NP_057937), or endogenous on KB, T47D and OVCAR3 cells; also called huFOLR1; folate receptor alpha
Description: To assure that materials were continuously performing as expected, all antibodies were screened for binding by both ELISA and flow cytometry methods known in the art. Flow cytometry was performed using FOLR1 expressing human T47D cells cultured using in-vitro cell culture techniques known in the art. The antibodies were bound to these cells and detected indirectly using a goat anti-murine Alexa-fluor 488 detection antibody on a FACScalibur machine (FIGS. 6A-B).

[2] = target: T2, FOLR2 (UniProt P14207 17-230, limits assumed); assay: commercially available ELISA kit
T2 construct: also called folate receptor 2
T2 sequence (P14207 17-230 limits assumed): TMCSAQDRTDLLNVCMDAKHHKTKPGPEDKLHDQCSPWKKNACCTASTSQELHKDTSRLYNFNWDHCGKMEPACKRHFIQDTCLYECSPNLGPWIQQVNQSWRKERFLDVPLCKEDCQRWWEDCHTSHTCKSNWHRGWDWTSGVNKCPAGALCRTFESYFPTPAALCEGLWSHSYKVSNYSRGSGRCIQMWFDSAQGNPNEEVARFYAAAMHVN
Description: (§1) It is important that the assay detect only FOLR1, and not FOLR2 or especially FOLR3 (commonly found as a shed protein in human plasma), since Mov19 is specific for only FOLR1. To determine this, the top four clones were screened by commercially available ELISA kits (FIGS. 7A-B).

[3] = target: T3, FOLR3 (UniProt P41439 23-245, limits assumed); assay: commercially available ELISA kit
T3 construct: also called folate receptor 3
T3 sequence (P41439 23-245 limits assumed): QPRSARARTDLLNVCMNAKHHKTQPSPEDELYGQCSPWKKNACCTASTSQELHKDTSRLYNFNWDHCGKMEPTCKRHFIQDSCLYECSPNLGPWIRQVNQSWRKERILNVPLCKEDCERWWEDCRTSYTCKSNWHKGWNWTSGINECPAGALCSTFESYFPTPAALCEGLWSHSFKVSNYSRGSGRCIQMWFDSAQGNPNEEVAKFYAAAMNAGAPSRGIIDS
Description: as §1

[4] = target: human folate receptor 1 (FOLR1) on cells (human) (UniProt P15328); assay: laser scanning cytometry on KB cells pre-treated with M9346A or vehicle, then stained with commercial FRA
Sequence of human folate receptor 1 (FOLR1) on cells (human) (P15328 25-234 limits assumed): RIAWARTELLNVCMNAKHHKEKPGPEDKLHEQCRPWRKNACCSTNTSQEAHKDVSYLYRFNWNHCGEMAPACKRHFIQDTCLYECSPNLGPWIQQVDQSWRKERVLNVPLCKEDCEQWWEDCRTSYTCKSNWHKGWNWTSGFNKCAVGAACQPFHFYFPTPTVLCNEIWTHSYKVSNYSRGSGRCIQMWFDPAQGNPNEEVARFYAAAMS

T1 sequence (P15328 25-234 limits assumed): as above

- Kd [1]: 2 to 4 nM
B1: muFR1-9 (antibody, mouse IgG1, kappa, V domains shown)
VH: QVQLVESGGGLVQPGGSRKLSCAASGFTFSSFGMHWVRQAPEKGLEWVAYISSGSSTFYYADTVKGRFTISRDNPKNTLFLQMTSLRSEDTAMYYCAKELTGTFAYWGQGTLVTVSA
VL: DIVLTQSPATLSVTPGDSVSLSCRASQSINNNLHWYQQKSHESPRLLIKYASQSISGIPSRFSGSGSGTDFTLSINSVETEDFGMYFCQQSNSWPQVTFGAGTKLELKR
notes: Murine monoclonal purified from hybridoma supernatant; Capture antibody of the shed antigen ELISA; also called murine FR1-9

- binding result [2]: no binding
- binding result [3]: no binding
- drop in FRA signal [4]: 66%
B2: huMov19 (M9346A) (antibody, V domains shown)
VH: QVQLVQSGAEVVKPGASVKISCKASGYTFTGYFMNWVKQSPGQSLEWIGRIHPYDGDTFYNQKFQGKATLTVDKSSNTAHMELLSLTSEDFAVYYCTRYDGSRAMDYWGQGTTVTVSS
VL: DIVLTQSPLSLAVSLGQPAIISCKASQSVSFAGTSLMHWYHQKPGQQPRLLIYRASNLEAGVPDRFSGSGSKTDFTLTISPVEAEDAATYYCQQSREYPYTFGGGTKLEIKR
notes: also called IMGN853 antibody; antibody component of IMGN853

- Kd [1]: 1 to 3 nM
B3: muFR1-13 (antibody, mouse IgG2b, kappa, V domains shown)
VH: QVQLKESGPDLVAPSQSLSITCTVSGFSLSRYSVHWIRQPPGKGLEWLGMIWSGGNTDYNSVFKSRLNITKDNSKSQVFLKMNSLQTDDTAIYYCATFDGKVSWFAYWGQGTLVTVSA
VL: SIVMTQTPKFLLVSTGDRFTITCKASQSVSNDVLWYQQKPGQSPKLLIYYAYNRYSGVPDRFTGSGYGTDFTFTITTVQSEDLAVYFCQQDHSSPFTFGSGTKLEIKR
notes: Murine monoclonal purified from hybridoma supernatant; Used biotinylated as the detection antibody in the ELISAs and unlabeled in the cytometry assays; also called muFR1-13b; Biotinylated FR1-13

From patent publication US20230213524A1 (published 2023)
